T1: Lsb1, P53281
T1 sequence (P53281 45-122, looked up): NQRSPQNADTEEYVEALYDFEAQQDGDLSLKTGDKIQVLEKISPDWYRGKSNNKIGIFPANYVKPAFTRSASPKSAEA

T2: Bud14, P27637
T2 sequence (P27637 247-328, looked up): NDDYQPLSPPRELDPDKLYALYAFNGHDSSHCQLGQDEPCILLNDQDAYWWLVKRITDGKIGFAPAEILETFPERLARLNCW

T3: Bbc1, P47068
T3 sequence (P47068 1-78, looked up): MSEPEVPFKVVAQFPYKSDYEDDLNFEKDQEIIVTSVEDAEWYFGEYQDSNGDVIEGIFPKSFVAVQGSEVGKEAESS

T4: Hof1, Q05080
T4 sequence (Q05080 590-669, looked up): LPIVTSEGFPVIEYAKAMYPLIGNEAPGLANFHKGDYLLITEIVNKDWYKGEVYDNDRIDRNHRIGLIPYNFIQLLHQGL

T5: Sla1-3, P32790
T5 sequence (P32790 344-424, looked up): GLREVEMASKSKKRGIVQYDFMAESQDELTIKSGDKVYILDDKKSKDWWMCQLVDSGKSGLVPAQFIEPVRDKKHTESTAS

T6: Pin3, Q06449
T6 sequence (Q06449 53-122, looked up): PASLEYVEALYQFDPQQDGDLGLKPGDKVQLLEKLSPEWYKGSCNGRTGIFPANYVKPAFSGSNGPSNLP

T7: Fus1, P11710
T7 sequence (P11710 432-512, looked up): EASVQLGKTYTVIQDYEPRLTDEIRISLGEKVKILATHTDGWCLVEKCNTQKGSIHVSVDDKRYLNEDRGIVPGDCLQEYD

T8: Cyk3, Q07533
T8 sequence (Q07533 1-83, looked up): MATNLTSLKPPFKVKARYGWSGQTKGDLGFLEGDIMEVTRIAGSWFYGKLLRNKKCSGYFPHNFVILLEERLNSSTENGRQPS

T9: Boi2, P39969
T9 sequence (P39969 32-116, looked up): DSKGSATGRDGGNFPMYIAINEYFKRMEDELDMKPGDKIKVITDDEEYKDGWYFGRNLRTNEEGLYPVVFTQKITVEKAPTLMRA

T10: Abp1, P15891
T10 sequence (P15891 535-592, looked up): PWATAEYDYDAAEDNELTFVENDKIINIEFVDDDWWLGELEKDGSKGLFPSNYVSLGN

T11: Hse1, P38753
T11 sequence (P38753 208-285, looked up): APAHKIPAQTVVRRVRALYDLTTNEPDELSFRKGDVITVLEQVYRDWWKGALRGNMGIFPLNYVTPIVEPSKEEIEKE

T12: Bzz1-1, P38822
T12 sequence (P38822 478-572, looked up): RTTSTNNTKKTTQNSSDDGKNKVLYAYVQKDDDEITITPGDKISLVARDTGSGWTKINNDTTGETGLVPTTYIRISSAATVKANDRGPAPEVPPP

T13: Boi1, P38041
T13 sequence (P38041 1-86, looked up): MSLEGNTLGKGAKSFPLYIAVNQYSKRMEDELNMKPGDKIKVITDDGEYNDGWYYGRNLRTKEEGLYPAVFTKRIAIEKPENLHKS

T14: Sla1-2, P32790
T14 sequence (P32790 60-140, looked up): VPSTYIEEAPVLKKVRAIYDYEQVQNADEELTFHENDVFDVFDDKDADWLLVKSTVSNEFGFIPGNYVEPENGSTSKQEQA

T15: Nbp2, Q12163
T15 sequence (Q12163 103-180, looked up): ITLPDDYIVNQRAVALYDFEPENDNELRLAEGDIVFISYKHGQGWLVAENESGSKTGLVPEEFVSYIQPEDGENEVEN

T16: Bzz1-2, P38822
T16 sequence (P38822 568-633, looked up): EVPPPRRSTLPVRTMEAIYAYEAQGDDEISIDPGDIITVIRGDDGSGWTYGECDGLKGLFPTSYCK

T17: Lsb3, P43603
T17 sequence (P43603 385-451, looked up): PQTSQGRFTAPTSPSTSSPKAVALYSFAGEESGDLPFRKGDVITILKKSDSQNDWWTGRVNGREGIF

T18: Lsb4, P32793
T18 sequence (P32793 402-468, looked up): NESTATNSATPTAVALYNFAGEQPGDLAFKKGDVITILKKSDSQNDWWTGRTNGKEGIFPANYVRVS

T19: Pex13, P80667
T19 sequence (P80667 295-386, looked up): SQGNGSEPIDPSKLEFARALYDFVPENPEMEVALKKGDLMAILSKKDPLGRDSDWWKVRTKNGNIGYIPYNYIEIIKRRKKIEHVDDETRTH

T20: Cdc25, P04821
T20 sequence (P04821 50-136, looked up): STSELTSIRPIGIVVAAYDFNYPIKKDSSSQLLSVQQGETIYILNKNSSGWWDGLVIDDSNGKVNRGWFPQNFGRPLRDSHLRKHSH

T21: Myo5, Q04439
T21 sequence (Q04439 1072-1160, looked up): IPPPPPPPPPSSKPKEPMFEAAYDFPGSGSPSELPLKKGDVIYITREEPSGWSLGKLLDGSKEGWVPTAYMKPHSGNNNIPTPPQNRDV


Target: T1, Lsb1, P53281
Assay: SPOT array
Settings: median of control spots 388

SPOT intensity	Binder
360	GKFIPSRPAPKPPSS
0	VDFTLPPPPPPPGLD
0	DLPLPDLPPEPPTEL

Target: T2, Bud14, P27637
Assay: SPOT array
Settings: median of control spots 956

SPOT intensity	Binder
0	GKFIPSRPAPKPPSS
0	VDFTLPPPPPPPGLD
0	DLPLPDLPPEPPTEL

Target: Sho1, P40073
Assay: SPOT array
Settings: median of control spots 1148

Sho1, P40073, sequence (P40073 287-367): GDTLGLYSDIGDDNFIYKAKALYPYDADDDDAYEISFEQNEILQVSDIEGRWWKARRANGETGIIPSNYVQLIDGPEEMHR

SPOT intensity	Binder
22	GKFIPSRPAPKPPSS
0	VDFTLPPPPPPPGLD
0	DLPLPDLPPEPPTEL

Target: T3, Bbc1, P47068
Assay: SPOT array
Settings: median of control spots 796

SPOT intensity	Binder
138	GKFIPSRPAPKPPSS
0	VDFTLPPPPPPPGLD
0	DLPLPDLPPEPPTEL

Target: T4, Hof1, Q05080
Assay: SPOT array
Settings: median of control spots 4086

SPOT intensity	Binder
0	GKFIPSRPAPKPPSS
143	VDFTLPPPPPPPGLD
566	DLPLPDLPPEPPTEL

Target: Rvs167, P39743
Assay: SPOT array
Settings: median of control spots 2707

Rvs167, P39743, sequence (P39743 419-482): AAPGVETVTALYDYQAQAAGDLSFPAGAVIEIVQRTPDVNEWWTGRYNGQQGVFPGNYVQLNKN

SPOT intensity	Binder
5	GKFIPSRPAPKPPSS
0	VDFTLPPPPPPPGLD
0	DLPLPDLPPEPPTEL

Target: T5, Sla1-3, P32790
Assay: SPOT array
Settings: median of control spots 5475

SPOT intensity	Binder
492	GKFIPSRPAPKPPSS
0	VDFTLPPPPPPPGLD
0	DLPLPDLPPEPPTEL

Target: T6, Pin3, Q06449
Assay: SPOT array
Settings: median of control spots 2171

SPOT intensity	Binder
12	GKFIPSRPAPKPPSS
0	VDFTLPPPPPPPGLD
0	DLPLPDLPPEPPTEL

Target: T7, Fus1, P11710
Assay: SPOT array
Settings: median of control spots 1200

SPOT intensity	Binder
0	GKFIPSRPAPKPPSS
0	VDFTLPPPPPPPGLD
0	DLPLPDLPPEPPTEL

Target: Bem1-2, P29366
Assay: SPOT array
Settings: median of control spots 4347

Bem1-2, P29366, sequence (P29366 139-227): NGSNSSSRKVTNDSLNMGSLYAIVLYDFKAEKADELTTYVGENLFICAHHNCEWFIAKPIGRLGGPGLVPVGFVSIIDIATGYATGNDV

SPOT intensity	Binder
14600	GKFIPSRPAPKPPSS
0	VDFTLPPPPPPPGLD
0	DLPLPDLPPEPPTEL

Target: T8, Cyk3, Q07533
Assay: SPOT array
Settings: median of control spots 1451

SPOT intensity	Binder
2	GKFIPSRPAPKPPSS
0	VDFTLPPPPPPPGLD
0	DLPLPDLPPEPPTEL

Target: T9, Boi2, P39969
Assay: SPOT array
Settings: median of control spots 1161

SPOT intensity	Binder
4	GKFIPSRPAPKPPSS
0	VDFTLPPPPPPPGLD
1	DLPLPDLPPEPPTEL

Target: T10, Abp1, P15891
Assay: SPOT array
Settings: median of control spots 935

SPOT intensity	Binder
231	GKFIPSRPAPKPPSS
0	VDFTLPPPPPPPGLD
0	DLPLPDLPPEPPTEL

Target: T11, Hse1, P38753
Assay: SPOT array
Settings: median of control spots 1727

SPOT intensity	Binder
0	GKFIPSRPAPKPPSS
0	VDFTLPPPPPPPGLD
0	DLPLPDLPPEPPTEL

Target: T12, Bzz1-1, P38822
Assay: SPOT array
Settings: median of control spots 4446

SPOT intensity	Binder
2	GKFIPSRPAPKPPSS
1	VDFTLPPPPPPPGLD
0	DLPLPDLPPEPPTEL

Target: T13, Boi1, P38041
Assay: SPOT array
Settings: median of control spots 1162

SPOT intensity	Binder
3	GKFIPSRPAPKPPSS
2	VDFTLPPPPPPPGLD
2	DLPLPDLPPEPPTEL

Target: Myo3, P36006
Assay: SPOT array
Settings: median of control spots 468

SPOT intensity	Binder
553	GKFIPSRPAPKPPSS
491	VDFTLPPPPPPPGLD
262	DLPLPDLPPEPPTEL

Target: Bem1-1, P29366
Assay: SPOT array
Settings: median of control spots 4282

Bem1-1, P29366, sequence (P29366 55-141): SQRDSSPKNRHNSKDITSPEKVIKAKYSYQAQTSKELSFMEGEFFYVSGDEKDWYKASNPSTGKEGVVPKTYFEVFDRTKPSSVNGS

SPOT intensity	Binder
1	GKFIPSRPAPKPPSS
0	VDFTLPPPPPPPGLD
3	DLPLPDLPPEPPTEL

Target: T14, Sla1-2, P32790
Assay: SPOT array
Settings: median of control spots 712

SPOT intensity	Binder
0	GKFIPSRPAPKPPSS
1	VDFTLPPPPPPPGLD
0	DLPLPDLPPEPPTEL

Target: T15, Nbp2, Q12163
Assay: SPOT array
Settings: median of control spots 357

SPOT intensity	Binder
2880	GKFIPSRPAPKPPSS
0	VDFTLPPPPPPPGLD
0	DLPLPDLPPEPPTEL

Target: T16, Bzz1-2, P38822
Assay: SPOT array
Settings: median of control spots 4538

SPOT intensity	Binder
52	GKFIPSRPAPKPPSS
1	VDFTLPPPPPPPGLD
0	DLPLPDLPPEPPTEL

Target: T17, Lsb3, P43603
Assay: SPOT array
Settings: median of control spots 406

SPOT intensity	Binder
21	GKFIPSRPAPKPPSS
0	VDFTLPPPPPPPGLD
0	DLPLPDLPPEPPTEL

Target: GST
Assay: SPOT array
Settings: median of control spots 978

SPOT intensity	Binder
0	GKFIPSRPAPKPPSS
0	VDFTLPPPPPPPGLD
1	DLPLPDLPPEPPTEL

Target: T18, Lsb4, P32793
Assay: SPOT array
Settings: median of control spots 397

SPOT intensity	Binder
56	GKFIPSRPAPKPPSS
0	VDFTLPPPPPPPGLD
0	DLPLPDLPPEPPTEL

Target: T19, Pex13, P80667
Assay: SPOT array
Settings: median of control spots 1341

SPOT intensity	Binder
362	GKFIPSRPAPKPPSS
2	VDFTLPPPPPPPGLD
0	DLPLPDLPPEPPTEL

Target: T20, Cdc25, P04821
Assay: SPOT array
Settings: median of control spots 969

SPOT intensity	Binder
4	GKFIPSRPAPKPPSS
0	VDFTLPPPPPPPGLD
2	DLPLPDLPPEPPTEL

Target: T21, Myo5, Q04439
Assay: SPOT array
Settings: median of control spots 471

SPOT intensity	Binder
593	GKFIPSRPAPKPPSS
367	VDFTLPPPPPPPGLD
101	DLPLPDLPPEPPTEL

Source: publication PMC2756588
